In article PMC9723649:

How the values were obtained:
[1] = substrate: N[C@@H](CO)C(=O)O; test: purified protein
[2] = substrate: Nc1ncnc2c1ncn2[C@@H]1O[C@H](COP(=O)(O)OP(=O)(O)OP(=O)(O)O)[C@@H](O)[C@H]1O; test: purified protein

B1: SARS2 (human mitochondrial seryl-tRNA synthetase, mature form) (Homo sapiens) (protein)
chain: TTEKRNRNLLYEYAREGYSALPQLDIERFCACPEEAAHALELRKGELRSADLPAIISTWQELRQLQEQIRSLEEEKAAVTEAVRALLANQDSGEVQQDPKYQGLRARGREIRKELVHLYPREAQLEEQFYLQALKLPNQTHPDVPVGDESQARVLHMVGDKPVFSFQPRGHLEIGEKLDIIRQKRLSHVSGHRSYYLRGAGALLQHGLVNFTFNKLLRRGFTPMTVPDLLRGAVFEGCGMTPNANPSQIYNIDPARFKDLNLAGTAEVGLAGYFMDHTVAFRDLPVRMVCSSTCYRAETNTGQEPRGLYRVHHFTKVEMFGVTGPGLEQSSQLLEEFLSLQMEILTELGLHFRVLDMPTQELGLPAYRKFDIEAWMPGRGRFGEVTSASNCTDFQSRRLHIMFQTEAGELQFAHTVNATACAVPRLLIALLESNQQKDGSVLVPPALQSYLGTDRITAPTHVPLQYIGPNQPRKPGLPGQPAVS
[1]
  Km: 2400 ± 40 µM
[2]
  Km: 112.83 ± 10.54 µM
